Source: PMC3521654, “The Nuclear Chaperone Nucleophosmin Escorts an Epstein-Barr Virus Nuclear Antigen to Establish Transcriptional Cascades for Latent Infection in Human B Cells” (PLoS Pathogens, 2012)

T1: GST-E2 300–360 (Epstein-Barr virus, UniProt P12978 300-360)
T1 construct: source: E. coli BL21 (DE3) pLys, purified (GST-sepharose)
T1 sequence: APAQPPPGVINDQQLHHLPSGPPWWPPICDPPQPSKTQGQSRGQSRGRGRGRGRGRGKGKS

T2: EBNA2 from the transfected expression vector (pSG5-EBNA2, E2) (Epstein-Barr virus, UniProt P12978 1-487)
T2 sequence (looked up): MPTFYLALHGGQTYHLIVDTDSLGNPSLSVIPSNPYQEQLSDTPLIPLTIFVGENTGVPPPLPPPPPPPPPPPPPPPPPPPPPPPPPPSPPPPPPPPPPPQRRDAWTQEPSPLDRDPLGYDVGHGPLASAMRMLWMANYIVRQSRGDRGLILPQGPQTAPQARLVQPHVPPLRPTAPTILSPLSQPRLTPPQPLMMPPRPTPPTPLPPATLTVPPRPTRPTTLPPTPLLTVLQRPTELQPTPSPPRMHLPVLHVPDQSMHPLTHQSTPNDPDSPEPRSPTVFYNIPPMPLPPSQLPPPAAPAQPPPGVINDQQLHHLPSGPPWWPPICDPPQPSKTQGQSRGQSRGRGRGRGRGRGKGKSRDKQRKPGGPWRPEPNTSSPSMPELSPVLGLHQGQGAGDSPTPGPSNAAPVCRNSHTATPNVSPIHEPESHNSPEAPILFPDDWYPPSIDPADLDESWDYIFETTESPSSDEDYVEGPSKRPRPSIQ

B1: flag-tagged NPM1 truncated deletion mutant C3 (1–120) (domain or fragment, UniProt P06748 1-120, looked up)
chain: MEDSMDMDMSPLRPQNYLFGCELKADKDYHFKVDNDENEHQLSLRTVSLGAGAKDELHIVEAEAMNYEGSPIKVTLATLKMSVQPTVSLGGFEITPPVVLRLKCGSGPVHISGQHLVAVE
notes: also called N-terminal oligomerization domain (OD); source: BJAB, transfected, in lysate
B2: flag-tagged NPM1 truncated deletion mutant C2 (1–194) (domain or fragment, UniProt P06748 1-194, looked up)
chain: MEDSMDMDMSPLRPQNYLFGCELKADKDYHFKVDNDENEHQLSLRTVSLGAGAKDELHIVEAEAMNYEGSPIKVTLATLKMSVQPTVSLGGFEITPPVVLRLKCGSGPVHISGQHLVAVEEDAESEDEEEEDVKLLSISGKRSAPGGGSKVPQKKVKLAADEDDDDDDEEDDDEDDDDDDFDDEEAEEKAPVKK
notes: source: BJAB, transfected, in lysate

How the values were obtained:
[1] = target: T1, GST-E2 300–360; assay: pull-down; conditions: one partner purified
[2] = target: T2, EBNA2 from the transfected expression …; assay: cell-based or functional assay

| Binder | percent of input pulled down [1] [%] | co-activation of EBNA2-dependent LMP1-Luc reporter activity in BJAB cells [2] [fold] |
| --- | --- | --- |
| B1 | ~2 | 2.5 |
| B2 | ~2 | 2.5 |
